Measurements as given in PMC6434538.
Where two headings read alike, the source gives them in different places.

Tests used:
RIG-I wild type [1] = biological target: T1, RIG-I wild type (UniProt O95786 1-925); assay: ATPase titration or fluorescence titration
T1 sequence: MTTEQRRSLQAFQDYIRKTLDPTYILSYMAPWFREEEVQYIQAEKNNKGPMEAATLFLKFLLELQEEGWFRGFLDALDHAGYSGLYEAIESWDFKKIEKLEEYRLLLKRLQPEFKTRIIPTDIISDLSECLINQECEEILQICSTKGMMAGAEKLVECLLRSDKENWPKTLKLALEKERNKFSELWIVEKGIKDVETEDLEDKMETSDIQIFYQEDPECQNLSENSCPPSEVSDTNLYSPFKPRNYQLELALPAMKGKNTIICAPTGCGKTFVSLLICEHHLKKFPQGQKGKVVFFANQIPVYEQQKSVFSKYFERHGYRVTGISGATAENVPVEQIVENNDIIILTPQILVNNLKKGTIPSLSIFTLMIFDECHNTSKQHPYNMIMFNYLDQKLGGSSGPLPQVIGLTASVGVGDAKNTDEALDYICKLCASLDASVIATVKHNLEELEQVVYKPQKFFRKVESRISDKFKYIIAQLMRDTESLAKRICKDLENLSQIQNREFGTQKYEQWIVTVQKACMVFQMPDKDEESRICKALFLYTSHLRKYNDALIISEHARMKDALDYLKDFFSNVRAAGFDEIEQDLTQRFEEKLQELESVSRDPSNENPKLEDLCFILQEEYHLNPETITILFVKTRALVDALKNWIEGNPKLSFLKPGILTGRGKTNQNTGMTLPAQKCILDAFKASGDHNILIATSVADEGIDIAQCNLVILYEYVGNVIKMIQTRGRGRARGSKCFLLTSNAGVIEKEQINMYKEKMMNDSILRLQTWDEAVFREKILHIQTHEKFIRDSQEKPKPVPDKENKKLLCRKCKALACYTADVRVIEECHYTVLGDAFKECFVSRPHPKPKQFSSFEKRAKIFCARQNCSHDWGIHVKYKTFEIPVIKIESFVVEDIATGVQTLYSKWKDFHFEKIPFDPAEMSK

RIG-I wild type [2] = biological target: T1, RIG-I wild type; assay: fluorescence intensity titration
RIG-I wild type [3] = biological target: T1, RIG-I wild type; assay: fluorescence intensity titration; remark: listed apart in the source

B1: 5'ppp dsRNA 27 bp (dsRNA)
RNA 1: AUACGUCCUGAUAGUUAGUAUCCAUCG
RNA 2: CGAUGGAUACUAACUAUCAGGACGUAU
modifications: 5'-triphosphate on strand 1
- Kd (RIG-I wild type [1]): 2.5 nM

B2: 5'OH dsRNA 27 bp (dsRNA)
RNA 1: AUACGUCCUGAUAGUUAGUAUCCAUCG
RNA 2: CGAUGGAUACUAACUAUCAGGACGUAU
modifications: 5'OH
- binding signal (RIG-I wild type [2]): 1.5 fold higher Kd than 5'ppp dsRNA

B3: 3'ovg dsRNA (dsRNA)
RNA 1: ACGUCCUGAUAGUUAGUAUCCAUCG
RNA 2: CGAUGGAUACUAACUAUCAGGACGUAU
modifications: 5'OH
- binding signal (RIG-I wild type [2]): 7 fold higher Kd than 5'ppp dsRNA
- binding signal (RIG-I wild type [3]): 50 fold higher Kd than 5'ppp dsRNA
